Results published in publication PMC8294390 (2021).

Target: T1, TNFR1 (Homo sapiens, UniProt P19438)
T1 chain: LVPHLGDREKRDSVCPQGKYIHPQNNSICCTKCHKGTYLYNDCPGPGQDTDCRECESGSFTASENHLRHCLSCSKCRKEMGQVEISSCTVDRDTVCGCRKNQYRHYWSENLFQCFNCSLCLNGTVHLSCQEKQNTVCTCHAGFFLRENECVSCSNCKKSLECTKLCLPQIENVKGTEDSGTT
Assay: SPR

- Kd: 5.01 nM
B1: Atrosimab (antibody)
chain 1: HVQLVQSGAEVKKPGSSVKVSCKASGYTFTDFYINWVRQAPGQGLEWIGEIVPSQGEAKYNDKFKARVTITADKSTSTAYMELSSLRSEDTAVYYCARWDFLDYWGQGTTVTVSSGTGGGSGPSVFLFPPKPKDTLMISRTPEVTCVVVDVSHEDPEVKFNWYVDGVEVHNAKTKPREEQYNSTYRVVSVLTVLHQDWLNGKEYKCKVSNKGLPSSIEKTISKAKGQPREPSVFIFPPSDEQLKSGTASVVCLVNNFYPRDIAVEWEVDNALQSGNSQESVTEQDSKDSTYSLSSTLTLSKADYEKHKVYSCSVMHEALHNHYTQKSFNRGEC
chain 2: DVQMTQSPSSLSASVGDRVTITCRSSQSLLHSNGNTYLHWYQQKPGKAPKLLIYTVSNRFSGVPSRFSGSGSGTDFTLTISSLQPEDFATYYCSQSTHVPYTFGGGTKVEIKGTGGGSGPSVFLFPPKPKDTLMISRTPEVTCVVVDVSHEDPEVKFNWYVDGVEVHNAKTKPREEQYNSTYRVVSVLTVLHQDWLNGKEYKCKVSNKGLPSSIEKTISKAKGQPREPSVFPLAPSSKSTSGGTAALGCLVKDYFPSDIAVEWESGALTSGVHTFPAVLQSSGLYSLSSVVTVPSSSLGTQTYSCSVMHEALHNHYTQKSVEPKSC
